# Reference: the RNAGym collection of RNA variant scans (doi:10.7554/elife.80360)
# B1: Hammerhead Ribozyme (parent)
# chain: ACCGGAUGUGCUUUCCGGUCUGAUGAGUCCGUGAGGACGAAACAG
# Variants of: B1
# Test: self-cleavage, relative activity (ratio to wild type); higher = more cleavage; co-transcriptional
row,Variant,self-cleavage
1,C16G G33U,1.09
2,C16U U24C,1.12
3,G10U A23U,0.421
4,C11A C43U,0.616
5,G36C G45C,0.393
6,G27C A40G,0.297
7,C2G U9G,0.32
8,U32A A44C,0.581
9,G17A A44G,0.742
10,A6G G17C,0.494
11,G36U A42G,0.316
12,G4U C30U,0.558
13,G4U C30G,0.305
14,C11G A40G,0.413
15,G31U G33U,1.23
16,U12C C29G,0.599
17,U13A C20G,0.354
18,G10A A40U,0.298
19,G18U C38U,0.661
20,A1U U14A,0.353
21,C2G A37C,0.311
22,C20A G25A,0.309
23,C20A G25C,0.287
24,G17C U24C,0.457

row,Variant,self-cleavage
1,A26G G35A,0.286
2,U7G G18C,0.464
3,A1G C3U,1.34
4,U12A G18A,0.726
5,U13A G17A,1.16
6,U19A C29A,0.332
7,C3U U13G,0.866
8,C3U U13A,1.1
9,G5A G18U,0.371
10,U7A A26U,0.556
11,C15G G18U,0.293
12,G5U A41C,0.402
13,G25U C29A,0.321
14,G4C G39C,0.244
15,G5C U9A,0.595
16,U9C U14G,1.29
17,U7C G27C,0.598
18,G31C A41C,0.306
19,A23U C30G,0.345
20,G5A A40G,0.379
21,C20A G36U,0.306
22,G5C G39A,0.252
23,G18A G31U,0.938
24,G18A G31C,0.74

row,Variant,self-cleavage
1,G25U G31U,0.419
2,G39C A40C,0.306
3,A1C A42U,0.322
4,C2U U13G,1.24
5,A23G A41C,0.34
6,U21G A23G,0.387
7,C16U U19C,0.572
8,G31C C43A,0.392
9,C38A C43G,0.382
10,C11A C30U,0.87
11,A6G U9C,0.834
12,G25U G45C,0.398
13,U7A G33U,1.14
14,G18U A34C,0.407
15,C20U U24C,0.508
16,U9A G18A,0.497
17,U9C U32G,0.9
18,G27C C38G,0.426
19,A40U C43U,0.336
20,C15G G22A,0.376
21,U14A A42C,0.296
22,C16U C43U,0.495
23,C3G C20A,0.295
24,U7G A23U,0.228

row,Variant,self-cleavage
1,G8U G36C,0.885
2,G8U G36A,0.658
3,G8C A26C,0.434
4,G5C G18A,0.293
5,U19A G36C,0.367
6,G10U A42U,0.304
7,U13G G39U,0.299
8,C20G,0.341
9,A37U C38G,0.384
10,U14C G36C,0.31
11,U12G A37U,0.438
12,G35U A40G,0.342
13,G18U C20U,0.437
14,U28A G36A,0.339
15,U12A G31U,1.12
16,C3U U32A,0.95
17,G31A A34C,0.991
18,G36C G39U,0.325
19,U7G G36C,0.557
20,A23C G45A,0.302
21,A37U A44G,0.801
22,C2G C15G,0.29
23,C3U U28A,0.448
24,G10U U32A,0.896

row,Variant,self-cleavage
1,U9G U21C,0.414
2,A26U G35A,0.52
3,C30A G31U,1.07
4,G18A G39A,0.339
5,U32C A44G,1.32
6,G35C C43U,0.387
7,G17C C29A,0.419
8,U7A C38G,0.431
9,U7G C20A,0.359
10,U13A C38A,0.808
11,A26G C29G,0.283
12,C30G C43G,0.267
13,C15G G27U,0.339
14,G4C G18U,0.284
15,C2A G18C,0.922
16,C16G G18A,0.533
17,U7A U19A,0.377
18,G4A U19A,0.353
19,G4A U19C,0.276
20,G4C G36A,0.282
21,U9G C38G,0.486
22,A6G A44U,0.483
23,A34U,0.926
24,G4U U32A,0.507

row,Variant,self-cleavage
1,G33U A44C,0.596
2,G17C G25A,0.362
3,A6G A26G,0.303
4,U28C,1.08
5,U13G A26U,0.678
6,U13G A26G,0.301
7,A6G A42C,0.268
8,U7G G17C,0.552
9,G17A A37C,0.642
10,G5U G33C,0.813
11,A1C G33C,0.321
12,C2A G36C,0.307
13,U12G G22U,0.37
14,G17C G35U,0.371
15,C11G G33U,1.53
16,U19G C29U,0.316
17,C30A C43U,0.431
18,C20A U32A,0.471
19,G10C A37G,0.958
20,U13A A34C,1.5
21,C2G U12G,0.31
22,C11G A23G,0.282
23,U19A A26G,0.313
24,A23U A34G,0.358

row,Variant,self-cleavage
1,C3U C29G,0.594
2,U13A U28A,1.1
3,G4C C43U,0.298
4,U13C A42U,0.327
5,G18A C20A,0.326
6,G18A C20U,0.312
7,U7G U12C,1.42
8,G25A G39U,0.351
9,U14A G36U,0.528
10,A1G A23C,0.96
11,C2G C3U,0.36
12,U24G G45C,0.536
13,G5A G36C,0.384
14,G17C A26U,0.326
15,G10A U21C,0.815
16,U12C U32A,1.26
17,U13C U21A,0.754
18,C2U U28A,0.445
19,U9G G35A,0.707
20,G31A A40G,0.417
21,U7C C30G,1.09
22,U24A G27C,0.685
23,U13A A42G,0.344
